± gives the uncertainty stated by the source.
Test: protein stability index of a GFP-peptide fusion (yeast GPS) (PSI 1-4); higher = more stable; sorted into four equal gates, so the index is relative within each strain
How it was run: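 Peptides tiling yeast proteins in 17-residue segments were fused downstream of GFP, with Cherry expressed from the same plasmid. As a pooled library in yeast, mid-log cultures grown in leucine-free medium were sorted into four equal gates by GFP/Cherry fluorescence ratio. Gate plasmids were PCR-amplified and Illumina-sequenced, and barcodes linked reads to strains. Each peptide received a protein stability index equal to the sum of each gate's read frequency times its gate number.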

Work on QSYGGRPYGVGLLIIGY [PRE5] yielded a protein stability index (doa10∆) of 2.96 ± 0.078, a protein stability index (pdr5∆) of 3.01 ± 0.067 and a protein stability index (san1∆) of 2.83 ± 0.07. For the same sequence, the protein stability index (ubr1∆) was 2.56 ± 0.071.
RLYLKDQTNHIESDSIL [ECM29] showed a protein stability index (doa10∆) of 2.8 ± 0.062, a protein stability index (pdr5∆) of 2.76 ± 0.06 and a protein stability index (san1∆) of 2.96 ± 0.048. The protein stability index (ubr1∆) was 2.62 ± 0.035.
HFLQFSELAGDEELEAE [PRP8] showed a protein stability index (doa10∆) of 3.33 ± 0.15 and a protein stability index (pdr5∆) of 3.11 ± 0.27.
For LKNEGIDLDHKRFLILQ [SMC4], the protein stability index (doa10∆) was 2.21 ± 0.22, the protein stability index (pdr5∆) was 2.35 ± 0.13 and the protein stability index (san1∆) was 2.15 ± 0.12. It also gave a protein stability index (ubr1∆) of 2.84 ± 0.068.
Sequence GLQNVRKVRTKKWKKYW [SWP82] has a protein stability index (doa10∆) of 3.6 ± 0.2 and a protein stability index (san1∆) of 3.26 ± 0.25.
In the case of NTTKPAFGGLNFGGGNN [YJL041W/NSP1], the protein stability index (doa10∆) is reported as 2.71 ± 0.054, the protein stability index (pdr5∆) is reported as 3.2 ± 0.061 and the protein stability index (san1∆) is reported as 3.01 ± 0.045. For the same sequence, the protein stability index (ubr1∆) was 3.13 ± 0.068.
For GRIRTTREDVSPHYNSQ [SSN3], the protein stability index (doa10∆) was 1.81 ± 0.067, the protein stability index (pdr5∆) was 2.02 ± 0.091 and the protein stability index (san1∆) was 1.89 ± 0.07. For the same sequence, the protein stability index (ubr1∆) was 1.73 ± 0.11.
In the case of DLCDVVESKFTEKIKSM [RPC19], the protein stability index (doa10∆) is reported as 3.43 ± 0.2, the protein stability index (pdr5∆) is reported as 2.9 ± 0.11 and the protein stability index (san1∆) is reported as 3.33 ± 0.1. It also gave a protein stability index (ubr1∆) of 3.44 ± 0.077.
With LDDDSIVNHEQDLPKIN [SRB4] the protein stability index (doa10∆) was 2.7 ± 0.14, the protein stability index (pdr5∆) was 2.92 ± 0.082 and the protein stability index (san1∆) was 2.99 ± 0.09. For the same sequence, the protein stability index (ubr1∆) was 2.81 ± 0.063.
EHASLLVRDSKPSKPFN [MED8] showed a protein stability index (doa10∆) of 2.43 ± 0.057, a protein stability index (pdr5∆) of 2.67 ± 0.046 and a protein stability index (san1∆) of 2.56 ± 0.05. It also gave a protein stability index (ubr1∆) of 2.55 ± 0.052.
Work on SMNVTLGVPRIKEIINA [RPO31] yielded a protein stability index (doa10∆) of 2.71 ± 0.066, a protein stability index (pdr5∆) of 2.56 ± 0.048 and a protein stability index (san1∆) of 2.13 ± 0.065. The protein stability index (ubr1∆) was 2.47 ± 0.046.
For LQFKSIREIDVAGGKKA [RPS7A], the protein stability index (doa10∆) was 1.45 ± 0.14, the protein stability index (pdr5∆) was 1.49 ± 0.11 and the protein stability index (ubr1∆) was 1.21 ± 0.077.
EVLEKDAAIVKKYKNKT [YGR119C/NUP57] showed a protein stability index (doa10∆) of 3.15 ± 0.11, a protein stability index (pdr5∆) of 3.24 ± 0.087 and a protein stability index (san1∆) of 3.16 ± 0.071. For the same sequence, the protein stability index (ubr1∆) was 3.1 ± 0.096.
For ELWRKEQKLQTVLETLL [SMC3], the protein stability index (doa10∆) was 2.9 ± 0.13, the protein stability index (pdr5∆) was 3.42 ± 0.11 and the protein stability index (san1∆) was 2.7 ± 0.17. The protein stability index (ubr1∆) was 3.31 ± 0.064.
With GSPQMLANEERLSNEMH [RGR1] the protein stability index (doa10∆) was 2.9 ± 0.074, the protein stability index (pdr5∆) was 2.95 ± 0.071 and the protein stability index (san1∆) was 3.39 ± 0.051. It also gave a protein stability index (ubr1∆) of 2.93 ± 0.054.
Sequence ERESSGAKDAEKSGISK [RPC17] has a protein stability index (doa10∆) of 2.91 ± 0.18, a protein stability index (pdr5∆) of 3.4 ± 0.3 and a protein stability index (ubr1∆) of 3.64 ± 0.16.
For ILKSLKNRSNRKRFHSQ [YOR098C/NUP1], the protein stability index (doa10∆) was 3.08 ± 0.061, the protein stability index (pdr5∆) was 3.22 ± 0.066 and the protein stability index (san1∆) was 3.03 ± 0.081. The protein stability index (ubr1∆) was 3.11 ± 0.042.
For ARVKAFDRHCNMVLENV [SMD2], the protein stability index (doa10∆) was 1.53 ± 0.091, the protein stability index (pdr5∆) was 2.3 ± 0.087 and the protein stability index (san1∆) was 1.39 ± 0.21. The protein stability index (ubr1∆) was 1.87 ± 0.085.
For RDGGLRLGEMERDCVIA [RET1], the protein stability index (doa10∆) was 3.15 ± 0.18, the protein stability index (pdr5∆) was 3.3 ± 0.12 and the protein stability index (san1∆) was 2.54 ± 0.13. For the same sequence, the protein stability index (ubr1∆) was 3.34 ± 0.095.
In the case of SHLFNEYSYVDSNMDSI [RPN4], the protein stability index (doa10∆) is reported as 3.26 ± 0.1, the protein stability index (pdr5∆) is reported as 3.56 ± 0.087 and the protein stability index (san1∆) is reported as 2.93 ± 0.1. The protein stability index (ubr1∆) was 3.06 ± 0.069.
IKRTDEGGEAEFIFGTY [ARP7] gave a protein stability index (doa10∆) of 3.35 ± 0.093, a protein stability index (pdr5∆) of 3.3 ± 0.11 and a protein stability index (san1∆) of 3.37 ± 0.056. The protein stability index (ubr1∆) was 3.36 ± 0.045.
Sequence QTANEKHITVRLTAKRL [SRP14] has a protein stability index (doa10∆) of 2.75 ± 0.1, a protein stability index (pdr5∆) of 2.91 ± 0.09 and a protein stability index (san1∆) of 2.94 ± 0.082. For the same sequence, the protein stability index (ubr1∆) was 2.92 ± 0.065.
With EQKNTAKEELNGLKDQL [YIL149C/MLP2] the protein stability index (doa10∆) was 3.19 ± 0.1, the protein stability index (pdr5∆) was 3.32 ± 0.16 and the protein stability index (san1∆) was 3.12 ± 0.054. It also gave a protein stability index (ubr1∆) of 3.31 ± 0.07.
Work on AVSRSMTDIWNTLIPES [ECM29] yielded a protein stability index (doa10∆) of 2.94 ± 0.067, a protein stability index (pdr5∆) of 3.05 ± 0.08 and a protein stability index (san1∆) of 2.84 ± 0.054. For the same sequence, the protein stability index (ubr1∆) was 3.03 ± 0.069.
FHFRAPSRIFYKALRGM [RPL16A] showed a protein stability index (doa10∆) of 1.97 ± 0.24, a protein stability index (pdr5∆) of 2.4 ± 0.18 and a protein stability index (san1∆) of 2.27 ± 0.14. It also gave a protein stability index (ubr1∆) of 2.43 ± 0.14.
KKYTQNNPLLLIVDVKQ [RPN8] gave a protein stability index (doa10∆) of 1.4 ± 0.068, a protein stability index (pdr5∆) of 1.31 ± 0.046 and a protein stability index (san1∆) of 1.06 ± 0.14. For the same sequence, the protein stability index (ubr1∆) was 1.16 ± 0.048.
Sequence RWDKEEYQSLMSLKDKL [SMC1] has a protein stability index (doa10∆) of 3.29 ± 0.076, a protein stability index (pdr5∆) of 3.31 ± 0.08 and a protein stability index (san1∆) of 3.2 ± 0.11. For the same sequence, the protein stability index (ubr1∆) was 3.09 ± 0.053.
KIESLAGGGESDSALIL [UBP6] gave a protein stability index (doa10∆) of 3.25 ± 0.18, a protein stability index (san1∆) of 3.49 ± 0.11 and a protein stability index (ubr1∆) of 3.12 ± 0.25.

— the supplement of paper PMC9732359
